Results as given in patent publication US20160296648A1.

Experiments:
[1] = biological target: CD22 (human) (UniProt P20273); test: flow cytometry on bone marrow blasts at inclusion
[2] = biological target: CD22 (human) (UniProt P20273); test: flow cytometry on peripheral blood blasts at inclusion
[3] = biological target: CD22 (human) (UniProt P20273); test: flow cytometry, BM blasts at day 15 post-RAIT (FIG. 1A)
[4] = biological target: CD22 (human) (UniProt P20273); test: flow cytometry, normal BM B cells at day 90 post-RAIT (FIG. 1B)
[5] = biological target: CD22 (human) (UniProt P20273); test: flow cytometry on residual blasts of one non-responder after RAIT
[6] = biological target: CD22 (human) (UniProt P20273); test: flow cytometry on residual blasts of four non-responders after RAIT
[7] = biological target: CD22 (human) (UniProt P20273); test: flow cytometry on blasts after elimination of epratuzumab from the surface
[8] = biological target: CD22 (human) (UniProt P20273); test: flow cytometry on residual blasts of three non-responders after RAIT (epratuzumab on the cells)
[9] = biological target: CD22 (human) (UniProt P20273); test: flow cytometry on BM blasts of a patient who had received epratuzumab (epratuzumab on the cells)
[10] = biological target: CD22 (human) (UniProt P20273); test: flow cytometry, normal BM B cells at day 180 post-RAIT (FIG. 1B), epratuzumab gone from the surface

SHCL-1 (anti-CD22 antibody clone, PE or PerCp-Cy5.5 conjugated, BD Biosciences)
median % of CD22-SHCL-1 expression (bone marrow blasts) [1]: 100%
median % of CD22-SHCL-1 expression (peripheral blasts) [2]: 100%
% CD22 SHCL-1 blast expression [3]: 100%
% CD22 SHCL-1 expression (normal BM B cells) [4]: 100%
% positivity of residual blasts [5]: 84%
% positivity of residual blasts [6]: 100%
% labeling of blasts [7]: 100%
% positivity of residual blasts [8]: 100%
% of SHCL-1+ blasts [9]: 100%
% positive (normal BM B cells) [10]: 100%
